# Measurements from patent US20240392013A1 (STELEXIS THERAPEUTICS, published 2024).
# T1: recombinant mouse IL1RAP protein (Sino Biological, Cat #52657-M08H) (mouse, UniProt Q61730 21-359)
# T1 construct: Bought protein
# T1 sequence (looked up): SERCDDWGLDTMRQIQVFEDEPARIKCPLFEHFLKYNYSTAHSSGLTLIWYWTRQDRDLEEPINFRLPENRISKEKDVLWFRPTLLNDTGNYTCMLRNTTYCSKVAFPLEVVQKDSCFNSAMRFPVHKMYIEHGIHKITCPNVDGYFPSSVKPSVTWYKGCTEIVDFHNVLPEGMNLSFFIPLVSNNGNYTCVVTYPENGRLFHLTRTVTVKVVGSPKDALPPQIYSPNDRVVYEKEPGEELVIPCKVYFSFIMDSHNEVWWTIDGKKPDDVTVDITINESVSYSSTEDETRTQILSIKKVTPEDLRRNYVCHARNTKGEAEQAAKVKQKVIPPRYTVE
# T2: IL1RAP on HEK-Blue IL1β / HEK-Blue IL33 reporter cells (UniProt Q9NPH3 21-570, limits assumed)
# T2 sequence (looked up): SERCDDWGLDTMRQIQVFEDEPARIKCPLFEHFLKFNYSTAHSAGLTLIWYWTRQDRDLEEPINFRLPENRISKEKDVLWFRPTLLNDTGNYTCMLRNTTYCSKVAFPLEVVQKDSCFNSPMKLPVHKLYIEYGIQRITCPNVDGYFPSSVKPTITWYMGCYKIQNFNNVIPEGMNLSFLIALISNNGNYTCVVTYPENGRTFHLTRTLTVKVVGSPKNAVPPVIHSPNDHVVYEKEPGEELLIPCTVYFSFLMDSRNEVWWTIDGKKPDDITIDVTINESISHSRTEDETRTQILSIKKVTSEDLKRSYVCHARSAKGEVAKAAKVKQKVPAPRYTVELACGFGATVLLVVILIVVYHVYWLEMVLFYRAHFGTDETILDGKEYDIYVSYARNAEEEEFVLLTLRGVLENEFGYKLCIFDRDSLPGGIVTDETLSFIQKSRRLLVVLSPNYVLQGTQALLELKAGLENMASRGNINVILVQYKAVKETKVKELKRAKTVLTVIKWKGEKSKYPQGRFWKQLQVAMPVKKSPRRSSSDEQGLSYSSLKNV
# T3: cyIL1RAP-His (Lake Pharma) (cynomolgus monkey, UniProt A0A2K5X5J5 21-367)
# T3 construct: Bought protein (Lake Pharma, lot 16205819371); also called cynomolgus IL1RAP; monkey IL1RAP; not shown: His tag
# T3 sequence: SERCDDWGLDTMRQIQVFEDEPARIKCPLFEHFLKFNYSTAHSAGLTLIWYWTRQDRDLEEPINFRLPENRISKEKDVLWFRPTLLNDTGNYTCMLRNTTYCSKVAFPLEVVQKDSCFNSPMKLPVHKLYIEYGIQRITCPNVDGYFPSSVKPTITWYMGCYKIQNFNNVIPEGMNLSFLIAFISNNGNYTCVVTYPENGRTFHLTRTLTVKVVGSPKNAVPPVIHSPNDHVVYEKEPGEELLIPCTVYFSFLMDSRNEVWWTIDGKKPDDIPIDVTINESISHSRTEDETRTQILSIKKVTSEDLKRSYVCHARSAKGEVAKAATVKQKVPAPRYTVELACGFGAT
# T4: recombinant human IL1RAP protein, extracellular domain His-tagged (Sino Biological, Cat #10121-H08H) (human, UniProt Q9NPH3 21-367)
# T4 construct: extracellular domain; Bought protein; The Octet analyte is printed as huIL1RAP-His (Sino Biological, lot MB08MA1301) without a catalogue number; also called huIL1RAP-His; hIL1RAP; not shown: His tag
# T4 sequence (looked up): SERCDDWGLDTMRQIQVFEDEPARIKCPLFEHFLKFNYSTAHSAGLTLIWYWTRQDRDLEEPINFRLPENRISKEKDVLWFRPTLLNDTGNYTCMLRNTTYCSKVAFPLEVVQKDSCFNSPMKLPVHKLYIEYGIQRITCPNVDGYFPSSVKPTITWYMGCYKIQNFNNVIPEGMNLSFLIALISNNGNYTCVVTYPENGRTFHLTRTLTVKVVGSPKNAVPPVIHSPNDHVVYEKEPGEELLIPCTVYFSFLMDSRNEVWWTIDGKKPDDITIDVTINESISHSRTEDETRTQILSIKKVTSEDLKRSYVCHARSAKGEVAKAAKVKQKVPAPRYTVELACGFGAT
# Experiments:
# [1] = molecular target: T1, recombinant mouse IL1RAP protein (Sino …); assay: cell-free ELISA, mouse IL1RAP coated; data not shown
# Description: Recombinant human or mouse IL1RAP proteins (Sino Biological, Beijing, China; Cat #10121-H08H and Sino Biological, Cat #52657-M08H respectively) were diluted in PBS, pH 7.4 at concentration of 1 μg/ml, coated on high-binding 384-well clear plates and incubated overnight at 4° C. Following, plates were washed 3× with 0.05% Tween-20 in PBS, pH 7.5 and then blocked with 1% BSA in PBS for 1 hour at room temperature. After 3× washes, wells were incubated with each antibody at the highest concentration of 100 nM followed by seven serial half log dilutions (in 1% BSA and 0.05% Tween-20 in PBS) for 1 hour at room temperature. Plates were then washed 3× and incubated with […] detection antibody (Medna, TX, USA; Cat #D8212, 0.5 μg/ml diluted in 0.02% Tween-20 in PBS). After 5× washes, Supersignal ELISA Pico substrate (Thermofisher, MA, USA; Cat #37069) was applied to wells and chemiluminescent signal was read on Sprectramax L for 200 ms/well. Similarly, detection with specific κ and λ antibodies was conducted to define light chain isotyping.
# [2] = molecular target: T2, IL1RAP on HEK-Blue IL1β / HEK-Blue IL33 …; assay: cell-based or functional assay
# [3] = molecular target: T3, cyIL1RAP-His (Lake Pharma); assay: Octet BLI; mAb captured on anti-mouse IgG Fc sensor; cyIL1RAP-His analyte
# Description: (§1) Antibodies were diluted in kinetics buffer (0.1% BSA, 0.02% Tween-20 and 0.05% NaN₃ in PBS) and loaded onto 16 channel anti-mouse IgG Fc capture sensors (AMC, Cat #2001073; Sartorius, Göttingen, Germany). Human, huIL1RAP-His (Sino Biological, lot: MB08MA1301), and monkey, cyIL1RAP-His (Lake Pharma, NY, USA; lot:16205819371) proteins were titrated starting from the highest concentration of 100 nM and followed by 50 nM and 25 nM. Purified antibodies were loaded at 5 μg/ml in kinetics buffer. The experimental parameters selected to determine the kinetic constants were Baseline for 60 s, Loading of antibody to sensor for 180 s, Association of analyte to antibody for 120 s, Dissociation for 1200 s and Regeneration in 10 mM Glycine pH 1.7 for 4×30 s.
# (§2) Regeneration cycle tracking was selected for 12 cycles. Binding to human and cynomolgus IL1RAP was measured and KD (M) kinetics were calculated. Also, the disassociation rate (Kdis) (1/s) and association rate (Kon) (1/Ms) kinetics were calculated (data not shown).
# [4] = molecular target: T2, IL1RAP on HEK-Blue IL1β / HEK-Blue IL33 …; assay: cell-based or functional assay; remark: listed apart in the source
# [5] = molecular target: T4, recombinant human IL1RAP protein, …; assay: Octet BLI; mAb captured on anti-mouse IgG Fc sensor; huIL1RAP-His analyte
# Description: as §1, §2
Binder,binding result [1],"IC50, HEK-BlueIL1β NFκB Reporter Assay [2]","Max % Inhibition at 200 nM, HEK-BlueIL1β NFκB Reporter Assay [2]",Kd [3],Response [3],koff [3],kon [3],"IC50, HEK-BlueIL33 NFκB Reporter Assay [4]","Max % Inhibition at 200 nM, HEK-BlueIL33 NFκB Reporter Assay [4]",Kd [5],Response [5],koff [5],kon [5]
"STLX2018 (antibody, V domains shown, Purified from hybridoma of immunized Alivamab mice; intact IgG; captured on anti-mouse IgG Fc sensors in Octet; kappa light chain; also called 74804_18L05A) VH: QVQLVQSGAEVKKPGASVKVSCKTSGYTFTSCCMHWVRQAPGQGLEWMGIINPSVGSTSYAQKFQGIVTMTRDTSTSTVYMELSSLRSEDTAVYYCAVDSSGSRYYYGMDVWGQGTTVTVSS VL: EIVMTQSPATLSVSPGERATLSCRASQSVRSNLAWYQQRPGQAPRLLIYGTSTRATGIPARFSGSGSGTEFTLTISSLQSEDFAVYYCQQYNYWPYTFGQGTKLEIK",no binding (tested: 100 nM),1.73e-09 M (implied; unit not printed),99%,4.32 nM,0.168,0.000954 s⁻¹,221000 M⁻¹ s⁻¹,4.81e-09 M (implied; unit not printed),93%,1.62 nM,0.17,0.00037 s⁻¹,228000 M⁻¹ s⁻¹
"STLX2044 (antibody, V domains shown, Purified from hybridoma of immunized Alivamab mice; intact IgG; captured on anti-mouse IgG Fc sensors in Octet; lambda light chain; also called 74804_44J14A) VH: QVQLQESGPGLVKPSETLSLTCTVSGGSVFSYFWNWIRQPPVKGLEWIGYIDHSGGTNYNPSLKSRVTMSVDTSKNQFSLKLSSVTAADTAVYYCAREGLHDAFDIWGQGTLVTVSS VL: not shown",no binding (tested: 100 nM),7.92e-10 M (implied; unit not printed),98%,1.68 nM,0.223,0.00206 s⁻¹,1.23e+06 M⁻¹ s⁻¹,8.12e-09 M (implied; unit not printed),73%,1.23 nM,0.268,0.000684 s⁻¹,558000 M⁻¹ s⁻¹
"STLX2030 (antibody, V domains shown, Purified from hybridoma of immunized Alivamab mice; intact IgG; captured on anti-mouse IgG Fc sensors in Octet; kappa light chain; also called 74804_30O16A) VH: QVQLVQSGAEVKRPGASVKVSCKASGYTFTGYYMHWVRQAPGQGLEWMGWINPYSGGTDYAQKFQDRVTMTRDTSISTAYMELSRLRSDDTAVYYCARSYYYYGMDVWGQGITVTVSS VL: not shown",no binding (tested: 100 nM),2.31e-09 M (implied; unit not printed),98%,2.59 nM,0.169,0.000369 s⁻¹,143000 M⁻¹ s⁻¹,1.24e-08 M (implied; unit not printed),76%,2.24 nM,0.153,0.000359 s⁻¹,160000 M⁻¹ s⁻¹
"STLX2009 (antibody, V domains shown, Purified from hybridoma of immunized Alivamab mice; intact IgG; captured on anti-mouse IgG Fc sensors in Octet; kappa light chain; also called 74804_09H05A) VH: QVQLFQSGAEVKKPGASVKVSCKASGYTFTGYYVHWVRQAPGQGLEWMGWINPNSGGTDYAQKFQGRVTMTWDTSISTAYMELSRLRSDDTAVYYCARSYYYYGMDVWGQGTTVTVSS VL: not shown",no binding (tested: 100 nM),2e-09 M (implied; unit not printed),99%,2.87 nM,0.219,0.000408 s⁻¹,142000 M⁻¹ s⁻¹,1.1e-08 M (implied; unit not printed),74%,1.64 nM,0.205,0.000272 s⁻¹,166000 M⁻¹ s⁻¹

# Now those with a lower Kd [3], led by results:
binding result [1],"IC50, HEK-BlueIL1β NFκB Reporter Assay [2]","Max % Inhibition at 200 nM, HEK-BlueIL1β NFκB Reporter Assay [2]",Kd [3],Response [3],koff [3],kon [3],"IC50, HEK-BlueIL33 NFκB Reporter Assay [4]","Max % Inhibition at 200 nM, HEK-BlueIL33 NFκB Reporter Assay [4]",Kd [5],Response [5],koff [5],kon [5],Binder
no binding (tested: 100 nM),1.72e-09 M (implied; unit not printed),101%,1.23 nM,0.342,0.000413 s⁻¹,334000 M⁻¹ s⁻¹,1.7e-08 M (implied; unit not printed),87%,0.803 nM,0.308,0.000233 s⁻¹,290000 M⁻¹ s⁻¹,"STLX2001N (antibody, V domains shown, Purified from hybridoma of immunized Alivamab mice; intact IgG; captured on anti-mouse IgG Fc sensors in Octet; kappa light chain; also called 74804_01N02A) VH: EVQLVQSGAEVKKPGESLKISCKGSGYSFTSYWIVWVRQMPGKGLEWMGFIYPGNSDTRYSPSFQGQVTISADQSISTAYLQWSSLKASDTATYYCARGGSYYLDYWGQGTLVTVSS VL: not shown"
no binding (tested: 100 nM),8.19e-10 M (implied; unit not printed),101%,0.739 nM,0.192,0.000259 s⁻¹,351000 M⁻¹ s⁻¹,4.82e-09 M (implied; unit not printed),80%,0.83 nM,0.17,0.000348 s⁻¹,420000 M⁻¹ s⁻¹,"STLX2017 (antibody, V domains shown, Purified from hybridoma of immunized Alivamab mice; intact IgG; captured on anti-mouse IgG Fc sensors in Octet; kappa light chain; also called 74804_17E20A) VH: EVQLVQSGAEVKKPGESLKISCKGSGYSFTSYWIGWVRQMPGKGLEWMGIIWPGDSDTRYSPSFQGQVTISADKSVNTAYLQWISLKASDTAIYYCARSSGGTAMDVWGQGTTVTVSS VL: not shown"
